From publication PMC10039067, “Temporal and spatial assembly of inner ear hair cell ankle link condensate through phase separation” (Nature Communications, 2023)
“And” between values parts separate entries of the source, which are not always exact repeats. Equal values may be shown once. Read-outs that look alike come from different tables or passages of the source. Values belong to the molecule of their own block, whether it stands above or below them.

B1: WHRN NPDZ12 (domain or fragment, UniProt Q9P202 33-377, looked up)
chain: RLLSANVRQLHQALTALLSEAEREQFTHCLNAYHARRNVFDLVRTLRVLLDSPVKRRLLPMLRLVIPRSDQLLFDQYTAEGLYLPATTPYRQPAWGGPDSAGPGEVRLVSLRRAKAHEGLGFSIRGGSEHGVGIYVSLVEPGSLAEKEGLRVGDQILRVNDKSLARVTHAEAVKALKGSKKLVLSVYSAGRIPGGYVTNHIYTWVDPQGRSISPPSGLPQPHGGALRQQEGDRRSTLHLLQGGDEKKVNLVLGDGRSLGLTIRGGAEYGLGIYITGVDPGSEAEGSGLKVGDQILEVNGRSFLNILHDEAVRLLKSSRHLILTVKDVGRLPHARTTVDETKWIAS
notes: WHRN, residues 33-377 (NTD, PDZ1 and PDZ2) of UniProtKB Q9P202; Cloned into pET.32M.3C; Named Trx-WHRN NPDZ12 in SEC-MALS; also called Trx-WHRN NPDZ12; Whirlin; source: E. coli BL21 (DE3), purified (Ni2+-NTA, size-exclusion chromatography); not shown: Trx, N-terminal, kept

Columns and labels:
WHRN NPDZ12 [1] = molecular target: B1; assay: ITC; MicroCal iTC200, 25 °C; 50 mM tris pH 7.5-8.0, 300 mM NaCl, 1 mM DTT, 1 mM EDTA; cell 20–50 µM, syringe 400–800 µM; one-site binding model
[2] = molecular target: the molecule itself; assay: SEC-MALS; single proteins at 50 μM; Superose 12 10/300 GL or Superdex 200 increase 10/300 GL; 50 mM tris, 300 mM NaCl, 1 mM DTT, 1 mM EDTA
WHRN NTD = molecular target: T1, WHRN NTD (UniProt Q9P202 33-117); assay: ITC
T1 chain: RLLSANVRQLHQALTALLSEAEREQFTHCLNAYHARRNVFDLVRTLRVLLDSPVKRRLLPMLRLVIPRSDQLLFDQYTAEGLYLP

WHRN NPDZ1 [3] = molecular target: T2, WHRN NPDZ1 (UniProt Q9P202 33-239); assay: ITC
T2 chain: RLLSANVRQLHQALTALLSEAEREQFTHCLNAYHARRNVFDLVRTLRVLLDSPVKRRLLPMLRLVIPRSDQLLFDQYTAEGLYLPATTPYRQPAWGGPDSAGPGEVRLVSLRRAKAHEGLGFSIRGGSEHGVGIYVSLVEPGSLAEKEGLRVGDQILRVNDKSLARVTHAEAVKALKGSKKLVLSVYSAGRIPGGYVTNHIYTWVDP

WHRN NPDZ12 [4] = molecular target: B1; assay: SEC-MALS; mixtures, each component around 30 µM; Superose 12 10/300 GL or Superdex 200 increase 10/300 GL; 50 mM tris, 300 mM NaCl, 1 mM DTT, 1 mM EDTA
WHRN NPDZ12 R223H = molecular target: T3, WHRN NPDZ12 R223H (UniProt Q9P202 33-377, R223H); assay: ITC; MicroCal iTC200, 25 °C; 50 mM tris pH 7.5-8.0, 300 mM NaCl, 1 mM DTT, 1 mM EDTA; cell 20–50 µM, syringe 400–800 µM; one-site binding model
T3 construct: WHRN, residues 33-377 of UniProtKB Q9P202 with the deafness-related mutation R223H; source: E. coli BL21 (DE3), purified (Ni2+-NTA, size-exclusion chromatography)
T3 sequence (looked up): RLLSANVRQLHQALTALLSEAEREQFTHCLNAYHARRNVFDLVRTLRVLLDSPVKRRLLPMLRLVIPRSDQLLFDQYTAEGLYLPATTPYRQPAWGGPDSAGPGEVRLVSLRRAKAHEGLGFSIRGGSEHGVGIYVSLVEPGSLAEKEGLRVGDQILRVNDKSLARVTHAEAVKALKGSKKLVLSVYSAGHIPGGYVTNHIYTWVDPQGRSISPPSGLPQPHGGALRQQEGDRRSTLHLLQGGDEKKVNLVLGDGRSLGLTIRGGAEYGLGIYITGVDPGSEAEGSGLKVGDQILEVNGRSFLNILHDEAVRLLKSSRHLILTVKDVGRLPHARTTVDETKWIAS

WHRN NPDZ12 T110A = molecular target: T4, WHRN NPDZ12 T110A (UniProt Q9P202 33-377, T110A); assay: as above
T4 construct: WHRN, residues 33-377 of UniProtKB Q9P202 with the deafness-related mutation T110A; source: E. coli BL21 (DE3), purified (Ni2+-NTA, size-exclusion chromatography)
T4 sequence (looked up): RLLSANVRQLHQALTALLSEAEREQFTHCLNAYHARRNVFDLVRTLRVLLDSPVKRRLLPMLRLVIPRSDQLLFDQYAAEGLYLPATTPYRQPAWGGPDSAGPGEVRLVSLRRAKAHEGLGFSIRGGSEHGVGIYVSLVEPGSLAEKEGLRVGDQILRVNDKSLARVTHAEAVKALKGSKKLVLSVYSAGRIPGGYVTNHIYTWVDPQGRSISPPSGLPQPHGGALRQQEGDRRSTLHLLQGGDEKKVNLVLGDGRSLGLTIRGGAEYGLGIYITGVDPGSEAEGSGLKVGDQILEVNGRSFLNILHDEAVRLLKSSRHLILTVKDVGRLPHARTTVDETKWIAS

WHRN NPDZ12 A64D = molecular target: T5, WHRN NPDZ12 A64D (UniProt Q9P202 33-377, A64D); assay: as above
T5 construct: WHRN, residues 33-377 of UniProtKB Q9P202 with the deafness-related mutation A64D; Mutant made by PCR-based mutagenesis; the ClinVar ids are tied to the mutations by their printed order; source: E. coli BL21 (DE3), purified (Ni2+-NTA, size-exclusion chromatography)
T5 sequence (looked up): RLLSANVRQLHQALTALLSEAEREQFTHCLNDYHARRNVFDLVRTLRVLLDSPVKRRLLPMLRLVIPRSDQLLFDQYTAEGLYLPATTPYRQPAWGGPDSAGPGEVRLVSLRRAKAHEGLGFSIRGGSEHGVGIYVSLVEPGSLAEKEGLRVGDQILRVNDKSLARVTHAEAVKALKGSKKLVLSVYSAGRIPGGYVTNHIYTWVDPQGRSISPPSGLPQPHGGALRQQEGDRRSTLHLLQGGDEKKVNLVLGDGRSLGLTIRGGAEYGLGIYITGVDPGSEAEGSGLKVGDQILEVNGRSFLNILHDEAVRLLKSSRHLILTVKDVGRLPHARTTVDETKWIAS

PDZD7 PDZ12 G228R = molecular target: T6, PDZD7 PDZ12 G228R (UniProt E9Q9W7 84-289, G228R); assay: ITC
T6 sequence: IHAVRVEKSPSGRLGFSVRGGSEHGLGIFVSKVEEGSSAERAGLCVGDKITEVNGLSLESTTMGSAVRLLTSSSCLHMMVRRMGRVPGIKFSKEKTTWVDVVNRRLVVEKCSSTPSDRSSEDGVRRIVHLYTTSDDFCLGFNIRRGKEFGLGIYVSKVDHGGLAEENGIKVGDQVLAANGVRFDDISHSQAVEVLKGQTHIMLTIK

PDZD7 PDZ12 M285R = molecular target: T7, PDZD7 PDZ12 M285R (UniProt E9Q9W7 84-289, M285R); assay: ITC
T7 sequence: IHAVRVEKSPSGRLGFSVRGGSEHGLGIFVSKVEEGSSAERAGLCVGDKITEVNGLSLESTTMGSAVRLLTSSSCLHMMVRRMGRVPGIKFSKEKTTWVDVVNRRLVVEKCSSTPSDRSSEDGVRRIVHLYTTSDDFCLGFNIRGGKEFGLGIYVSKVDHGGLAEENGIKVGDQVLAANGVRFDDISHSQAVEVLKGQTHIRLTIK

PDZD7 PDZ12 = PDZD7 PDZ12 (UniProt E9Q9W7); assay: ITC; MicroCal iTC200, 25 °C; 50 mM tris pH 7.5-8.0, 300 mM NaCl, 1 mM DTT, 1 mM EDTA; cell 20–50 µM, syringe 400–800 µM; one-site binding model
PDZD7 PDZ1 = PDZD7 PDZ1 (UniProt E9Q9W7); assay: as above
PDZD7 PDZ1, sequence (E9Q9W7 81-167): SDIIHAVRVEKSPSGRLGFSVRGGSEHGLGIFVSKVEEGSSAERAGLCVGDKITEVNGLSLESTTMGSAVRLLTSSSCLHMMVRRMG

USH2A-CT = USH2A-CT (UniProt Q2QI47); assay: SEC-MALS; single proteins at 50 μM; Superose 12 10/300 GL or Superdex 200 increase 10/300 GL; 50 mM tris, 300 mM NaCl, 1 mM DTT, 1 mM EDTA
WHRN PDZ1 = WHRN PDZ1 (UniProt Q9P202); assay: ITC; MicroCal iTC200, 25 °C; 50 mM tris pH 7.5-8.0, 300 mM NaCl, 1 mM DTT, 1 mM EDTA; cell 20–50 µM, syringe 400–800 µM; one-site binding model
WHRN NPDZ1 [5] = molecular target: T2, WHRN NPDZ1; assay: as above

Kd (WHRN NPDZ12 [1]): 9.5 µM
Molecule: ADGRV1-CT △PBM (from UniProt Q8VHN7 6239-6298) (domain or fragment)

Molecule: B1
stoichiometry N [2]: 2

Kd (WHRN NTD): 31 µM
Kd (WHRN NPDZ1 [3]): 9 µM
Kd (WHRN NPDZ12 [1]; both partners purified): ~1.4 µM
Kd (WHRN NPDZ12 R223H; both partners purified): 3.3 µM
Kd (WHRN NPDZ12 T110A; both partners purified): 0.55 µM
Kd (WHRN NPDZ12 A64D; both partners purified): 0.41 µM
B2: ADGRV1-CT (domain or fragment, UniProt Q8VHN7 6239-6298, looked up)
chain: GSLIADEESQEFDDLIFALKTGAGLSVSDNESGQGSQEGGTLTDSQIVELRRIPIADTHL
notes: ADGRV1 cytoplasmic region, residues 6239-6298 of UniProtKB Q8VHN7; Named Trx-ADGRV1-CT in SEC-MALS; also called Trx-ADGRV1-CT; VLGR1-CT; source: E. coli BL21 (DE3), purified (Ni2+-NTA, size-exclusion chromatography); not shown: Trx, N-terminal, kept
stoichiometry N (WHRN NPDZ12 [4]; both partners purified): 2 copies per WHRN dimer and 1 copy per WHRN dimer (three proteins mixed)

B3: WHRN NTD (domain or fragment, UniProt Q9P202 33-117, looked up)
chain: RLLSANVRQLHQALTALLSEAEREQFTHCLNAYHARRNVFDLVRTLRVLLDSPVKRRLLPMLRLVIPRSDQLLFDQYTAEGLYLP
notes: WHRN N-terminal domain, residues 33-117 of UniProtKB Q9P202; also called N-terminal domain; HHD1; source: E. coli BL21 (DE3), purified (Ni2+-NTA, size-exclusion chromatography)
binding result [2]: binds

stoichiometry N (copies per WHRN dimer) (WHRN NPDZ12 [4]): 2
stoichiometry N (WHRN NPDZ12 [4]; scale: copy per WHRN dimer): 1
Kd (PDZD7 PDZ12 G228R): 56 µM
Kd (PDZD7 PDZ12 M285R): 8.5 µM
Kd (PDZD7 PDZ12): 15 µM
Kd (PDZD7 PDZ1): 66 µM
Kd (WHRN NPDZ12 [1]): 2.7 µM
Kd (WHRN NPDZ12 R223H): 4.7 µM
Kd (WHRN NPDZ12 T110A): 16 µM
Kd (WHRN NPDZ12 A64D): 5.5 µM
Molecule: GHSSGLYVDEEELMNAIKGFSSVTKEHTAFTDTHL (domain or fragment) [USH2A-CT (Short, S)]

Kd (WHRN NTD): 19 µM
stoichiometry N (USH2A-CT): 2
Kd (WHRN PDZ1): 1.2 µM
Kd (WHRN NPDZ1 [5]): 5.1 µM
Kd (WHRN NPDZ12 [1]): 0.68 µM
B4: USH2A-CT (domain or fragment)
chain: PSQSQLSHAYSQSSLHRSVSQLMDMADKKVVTEDSLWETIMGHSSGLYVDEEELMNAIKGFSSVTKEHTAFTDTHL
